Consider two proteins from patent US6872537.

The data set addresses microtubules prepared from bovine brain tubulin.

B1: co-expressed baculovirus p60/p80 katanin heterodimer (both subunits with N-terminal His(6) tag) (protein)
chain 1: HHHHHHMSVDEICENTKMGREYALLGNYETSLVYYQGVLQQIQKLLTSVHEPQRKHQWQTIRQELSQEYEHVKNITKTLNGFKSEPAAPEPAPNHGRAAPFSHHQHAAKPAAAEPARDPDVWPPPTPVDHRPSPPYQRAARKDPPRRSEPSKPANRAPGNDRGGRGPSDRRGDARSGGGGRGGARGSDKDKNRGGKSDKDKKAPSGEEGDEKKFDPAGYDKDLVENLERDIVQRNPNVHWADIAGLTEAKRLLEEAVVLPLWMPDYFKGIRRPWKGVLMVGPPGTGKTMLAKAVATECGTTFFNVSSASLTSKYHGESEKLVRLLFEMARFYAPSTIFIDEIDSICSKRGTGSEHEASRRVKSELLIQMDGVSGPSAGEESSKMVMVLAATNFPWDIDEALRRRLEKRIYIPLPEIDGREQLLRINLKEVPLADDIDLKSIAEKMDGYSGADITNVCRDASMMAMRRRIQGLRPEEIRHIPKEELNQPSTPADFLLALQKVSKSVGKEDLVKYMAWMEEFGSV
chain 2: HHHHHHMATKRAWKLQELVAHSSNVNCLALGPMSGRVMVTGGEDKKVNLWAVGKQNCIISLSGHTSPVDSVKFNSSEELVVAGSQSGTMKIYDLEPAKIVRTLTGHRNSIRCMDFHPFGEFVASGSTDTNVKLWDVRRKGCIYTYKGHSDQVNMIKFSPDGKWLVTASEDTTIKLWDLTMGKLFQEFKNHTGGVTGIEFHPNEFLLASGSSDRTVQFWDLETFQLVSSTSPGASAVRSISFHPDGSYLFCSSQDMLHAFGWEPIRCFDTFSVFWGKVADTVIASTQLIGASFNATNVSVYVADLSRMSTTGIAQEPQSQPSKTPSGGAEEVPSKPLTASGRKNFVRERPHTTSSKQRQPDVKSEPERQSPTQDEGVKDDDATDIKDPDSYAKIFSPKTRVDHSPERNAQPFPAPLDVPGAQEPEPFKHPPKPAAAAAVAPVSRAPAPSASDWQPAQANPAPNRVPAATKPVPAQEVAPSRKPDPISTIIPSDRNKPANLDMDAFLPPAHAQQAPRVNAPASRKQSDSERIEGLRKGHDSMCQVLSSRHRNLDVVRAIWTAGDAKTSVESVVNMKDQAILVDILNIMLLKKSLWNLDMCVVVLPRLKELLSSKYENYVHTSCACLKLILKNFTSLFNQNIKCPPSGIDITREERYNKCSKCYSYLIATRGYVEEKQHVSGKLGSSFRELHLLLDQLE
Take B1: the “ATPase activity (malachite green), stimulation by microtubules” value is recorded as “this activity was stimulated ˜10-fold by microtubules”; the “maximal microtubule-stimulated ATPase rate” value was “maximal microtubule-stimulated rate of 3 ATP/katanin/sec”; the “microtubule concentration at peak ATPase stimulation” value was “peak at ˜2 µM tubulin”; the “microtubule severing, fluorescence microscopy assay” value was “Both p60 and p60/p80 severed microtubules in this assay”.

B2: baculovirus-expressed S. purpuratus katanin p60 subunit with N-terminal His(6) tag (protein)
chain: B1 chain 1
In the case of B2, the “ATPase activity (malachite green), stimulation by microtubules” value is “p60 alone displayed a microtubule-stimulated ATPase activity”; the “microtubule concentration at peak ATPase stimulation” value is reported as “peak at ˜2 µM tubulin”; the “microtubule severing, fluorescence microscopy assay” value was “Both p60 and p60/p80 severed microtubules in this assay”.
